Two proteins from patent US20220403424A1 (UNIVERSITY OF PUERTO RICO, published 2022) can be followed below.

This series concerns the molecule itself. Nature of the series: size exclusion chromatography, self-association. (In gel filtration, larger molecules generally elute earlier.)

B1: FabZ-Linker-FabZ fused homodimer (enzyme)
chain: MTTNTHTLQIEEILELLPHRFPFLLVDRVLDFEEGRFLRAVKNVSVNEPFFQGHFPGKPIFPGVLILEAMAQATGILAFKSVGKLEPGELYYFAGIDEARFKRPVVPGDQMIMEVTFEKTRRGLTRFKGVALVDGKVVCEATMMCARSREASTQNVAIQTAAPVASASNGLDAAQVQGTMTTNTHTLQIEEILELLPHRFPFLLVDRVLDFEEGRFLRAVKNVSVNEPFFQGHFPGKPIFPGVLILEAMAQATGILAFKSVGKLEPGELYYFAGIDEARFKRPVVPGDQMIMEVTFEKTRRGLTRFKGVALVDGKVVCEATMMCARSREA
notes: Single-chain fusion; By SEC it elutes as a trimer of fused dimers, so three copies of this chain, at about 116 kDa; also called FabZ-FabZ; FabZFabZ; not shown: His tag from vector pET-200/TOPO
B1: the binding result is recorded as “binds”.

B2: FabA-Linker-FabZ fused heterodimer (enzyme)
chain: MVDKRESYTKEDLLASGRGELFGAKGPQLPAPNMLMMDRVVKMTETGGNFDKGYVEAELDINPDLWFFGCHFIGDPVMPGCLGLDAMWQLVGFYLGWLGGEGKGRALGVGEVKFTGQVLPTAKKVTYRIHFKRIVNRRLIMGLADGEVLVDGRLIYTASDLKVGLFQDTSAFSTQNVAIQTAAPVASASNGLDAAQVQGTMTTNTHTLQIEEILELLPHRFPFLLVDRVLDFEEGRFLRAVKNVSVNEPFFQGHFPGKPIFPGVLILEAMAQATGILAFKSVGKLEPGELYYFAGIDEARFKRPVVPGDQMIMEVTFEKTRRGLTRFKGVALVDGKVVCEATMMCARSREA
notes: Single-chain fusion, His-tagged, purified from E. coli; By SEC and SAXS the chain self-associates into a higher oligomer of about 400 kDa; The number of copies is not settled: 'possibly decamers', and nonamers in computational models; also called FabA-FabZ; FabA-peptide linker-FabZ; not shown: His tag from vector pET-200/TOPO
For B2, the binding result is on record as “binds”.
